Results on one molecule are retold here after US20230312722A1 (NONA BIOSCIENCES SUZHOU, published 2023).

The target in test [1] is T1, B7-H4 (Acro Biosystems, #B74-H82E2) (UniProt Q7Z7D3 29-258).
T1 construct: Bought protein; also called B7-H4 captured on SA sensor
T1 sequence (looked up): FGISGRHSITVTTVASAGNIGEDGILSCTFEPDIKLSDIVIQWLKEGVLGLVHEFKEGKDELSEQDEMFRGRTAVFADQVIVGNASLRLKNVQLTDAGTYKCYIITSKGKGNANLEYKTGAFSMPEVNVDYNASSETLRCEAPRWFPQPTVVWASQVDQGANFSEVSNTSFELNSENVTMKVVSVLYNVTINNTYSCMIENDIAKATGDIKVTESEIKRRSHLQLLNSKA
Kind of test: BLI epitope competition; 1st Ab = row; competitor (2nd Ab) Control antibody 2; inhibition of the 2nd Ab signal. On the procedure:
(§1) Step one, acquisition of 100% signal of antibodies: B7-H4 (Acro Biosystems, #B74-H82E2-200 μg) was captured at a capture height of 0.25 nm using an SA sensor (Fortebio, #18-5019). The sensor was equilibrated in a buffer for 120 s and then immersed in each antibody diluted to 100 nM for 240 s, and the final signal of the antibody binding to B7-H4 was recorded as the 100% signal of the antibody. Step two, epitope competition experiment: B7-H4 was captured using an SA sensor at a capture height of 0.25 nm. The sensor was immersed in a primary antibody (at a concentration of 100 nM) for 240 s, and then the SA sensor was immersed in a mixture of the primary and secondary antibodies (both at a final concentration of 100 nM) for 240 s, and the difference in signals after immersion of the sensor in the antibody mixture was recorded as the signal of the antibody as the secondary antibody. The inhibition rate was calculated according to the following formula: […]

For test [2], the target named is T2, cynomolgus monkey B7H4 on the cell surface (cynomolgus monkey, UniProt A0A2K5U6P5 25-282).
T2 construct: whole, on cells; also called CHOK1/cyno B7H4
T2 sequence: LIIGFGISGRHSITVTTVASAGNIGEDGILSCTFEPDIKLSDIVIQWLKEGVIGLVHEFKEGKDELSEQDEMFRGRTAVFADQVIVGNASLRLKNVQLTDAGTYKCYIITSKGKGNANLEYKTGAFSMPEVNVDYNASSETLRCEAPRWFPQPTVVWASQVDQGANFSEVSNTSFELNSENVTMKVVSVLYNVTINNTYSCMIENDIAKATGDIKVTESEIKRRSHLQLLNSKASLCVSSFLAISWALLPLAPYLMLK
Description: FACS, CHOK1/cyno B7H4 cells. On the procedure:
This example is intended to investigate the in vitro binding activity of anti-human B7H4 H2L2 monoclonal antibody to human/cynomolgus monkey/mouse B7H4. Antibody binding experiments at the cellular level were performed using CHOK1 cell line overexpressing human B7H4 (CHOK1/hu B7H4, Harbour BioMed), CHOK1 cell line overexpressing cynomolgus monkey B7H4 (CHOK1/cyno B7H4, Harbour BioMed), CHOK1 cell line overexpressing mouse B7H4 (CHOK1/m B7H4, Harbour BioMed) and SK-BR-3 cell line (ATCC® HTB-30) highly expressing human B7H4. Briefly, CHOK1/hu B7H4 cells, CHOK1/cyno B7H4 cells, CHOK1/m B7H4 cells or SK-BR-3 cells were digested and resuspended with PBS containing 2% BSA. The cell density was adjusted to 1×10⁶ cells/mL. The cells were seeded in a 96-well V-bottom plate (Corning, #3894) at 100 μL/well, followed by the addition of test antibodies diluted in a 3-fold concentration gradient of 2 times the final concentration, each at 100 μL/well. The cells were incubated at 4° C. for 2 h away from light. Thereafter, the cells in each well were rinsed twice with 100 μL of pre-cooled PBS containing 2% BSA, and centrifuged at 500 g at 4° C. for 5 min, and then the supernatant was discarded. […] Finally, the cells in each well were resuspended with 200 μL of pre-cooled PBS containing 2% BSA, and the fluorescence signal values were read using an ACEA Novocyte3000 flow cytometer.
(In flow cytometry, cells or beads pass a laser one at a time.)

The target of test [3] is T3, Human B7H4 (his tag), Sino Biological #10738-H08H (human, UniProt Q7Z7D3 25-259).
T3 construct: extracellular domain; Bought protein; also called hB7H4-ECD-his
T3 sequence (looked up): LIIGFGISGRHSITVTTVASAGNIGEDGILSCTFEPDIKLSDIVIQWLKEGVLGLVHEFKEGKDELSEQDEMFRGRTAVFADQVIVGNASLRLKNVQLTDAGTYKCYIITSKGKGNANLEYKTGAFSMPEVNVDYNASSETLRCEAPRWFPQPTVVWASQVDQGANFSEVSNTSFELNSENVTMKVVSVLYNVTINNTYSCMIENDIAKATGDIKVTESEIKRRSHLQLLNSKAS
Kind of test: SPR (Biacore T200), antibody captured on Protein A, B7H4-his as analyte, 1:1 fit. The procedure:
10×HBS-EP+ (GE Healthcare, #BR-1006-69) was diluted 10-fold and then taken as an experimental buffer. The flow rate was set at 10 μL/min, and Protein A was coupled to 4 channels of a chip CM5 (GE Healthcare, #BR-1005-30) through the following procedures: 1) the injection time was set to 800 s, and a fresh mixture of 50 mM NHS and 200 mM EDC was injected into the 4 channels in a volume ratio of 1:1; 2) Protein A was diluted to 20 μg/mL with sodium acetate (GE Healthcare, #BR-1003-50) at pH 4.5 and injected into each channel for 800 s; and 3) 1 M ethanolamine at pH 8.5 was injected for 800 s to block the remaining active carboxyl groups on the chip surface. After blocking, the instrument was equilibrated with 1×HBS-EP+buffer for 2 hours, and the final coupling level of Protein A was about 2000 RU.
A multi-cycle kinetics mode was set at Biacore T200, and each cycle included antibody capture, analyte binding and chip regeneration. […] Finally, 10 mM glycine-hydrochloric acid at pH 1.5 (GE Healthcare, #BR-1003-54) was injected at the same flow rate for 30 s to regenerate the chip.
The experimental results were analyzed using the Biacore T200 analysis software 2.0, with channel 1 subtracted as a reference channel and a 1:1 kinetic fitting model selected as an analysis model.
A general note: SPR reads the build-up and loss of mass on a sensor chip optically.

The target of test [4] is T1, B7-H4 (Acro Biosystems, #B74-H82E2). Description: BLI epitope competition; 1st Ab = row; competitor (2nd Ab) Control antibody 1; inhibition of the 2nd Ab signal. The procedure:
as §1

B1: Control antibody 1 (PR000157) (antibody, V domains shown)
VH: EVQLVQSGAEVKKPGASVKVSCKASGYTFTSYWIGWVRQAPGQGLEWIGDIYPGGGYTNYNEKFKGRVTITRDTSTSTAYLELSSLRSEDTAVYYCARLAGSSYRGAMDSWGQGTLVTVSS
VL: DIQMTQSPSSLSASVGDRVTITCKASQGFNKYVAWYQQKPGKAPKLLIYYTSTLQPGVPSRFSGSGSGRDYTLTISSLQPEDFATYYCLQYGDLLYAFGQGTKVEIKR
notes: Anti-B7H4 IgG1 control antibody from WO2016040724A1; also called 1D11.v1.9varC2
For the molecule B1, the “Competitive inhibition rate (%)” value in test [1] is 94.6%. Also, in test [2], the EC50 (commonly the concentration needed to bring the measured effect to its halfway point) is 2.1 nM and the “Maximum MFI” value was determined as 1.99e+06 MFI. For the same molecule, in test [3], the Kd (in general, the free concentration of one partner at which half of the binding sites on the other are occupied at equilibrium, for simple one-to-one binding) was 4.67 nM; the koff – broadly, the rate constant with which the complex falls apart – was determined as 0.000189 s⁻¹; the kon – broadly, the rate constant with which the complex forms – was 40400 M⁻¹ s⁻¹. In test [4], the “Competitive inhibition rate (%)” value amounted to 95.3%.
